This is an account of results in publication PMC9814530, “Rapid de novo discovery of peptidomimetic affinity reagents for human angiotensin converting enzyme 2” (Communications Chemistry, 2022).

Where no end group is shown, it is not given here.

B1: ACE2-binding peptide ABP C8 (peptide)
chain: LQWHPAYWFMQVK-NH2
modifications: also: biotinylated, position not given here
B2: ACE2-binding peptide ABP C3 (peptide)
chain: LHKQFGWHWFGFK-NH2
modifications: also: biotinylated, position not given here
B3: ACE2-binding peptide ABP C7 (peptide)
chain: LQRGVFGFPYRVK-NH2
modifications: also: biotinylated, position not given here

T1 sequence (Q9BYF1 18-740): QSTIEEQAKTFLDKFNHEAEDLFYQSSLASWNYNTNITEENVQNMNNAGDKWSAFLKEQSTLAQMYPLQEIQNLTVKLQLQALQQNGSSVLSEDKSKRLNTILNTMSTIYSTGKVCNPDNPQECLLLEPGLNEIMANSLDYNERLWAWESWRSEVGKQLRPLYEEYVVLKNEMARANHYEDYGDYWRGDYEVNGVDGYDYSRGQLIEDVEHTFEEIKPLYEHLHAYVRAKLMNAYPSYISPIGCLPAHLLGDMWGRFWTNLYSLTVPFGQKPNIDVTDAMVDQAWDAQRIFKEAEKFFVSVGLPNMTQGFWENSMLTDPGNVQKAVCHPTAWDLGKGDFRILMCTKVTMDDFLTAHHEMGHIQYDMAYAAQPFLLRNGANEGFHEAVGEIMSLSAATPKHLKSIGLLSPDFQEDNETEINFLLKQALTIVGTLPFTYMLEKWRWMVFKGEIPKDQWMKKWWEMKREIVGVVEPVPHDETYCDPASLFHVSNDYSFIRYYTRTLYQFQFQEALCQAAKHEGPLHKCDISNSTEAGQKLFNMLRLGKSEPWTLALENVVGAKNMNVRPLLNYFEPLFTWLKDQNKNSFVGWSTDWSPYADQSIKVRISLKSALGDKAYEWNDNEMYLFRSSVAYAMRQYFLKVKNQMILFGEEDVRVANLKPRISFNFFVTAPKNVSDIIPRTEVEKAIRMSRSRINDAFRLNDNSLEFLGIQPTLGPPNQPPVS

This test concerns the target T1, human angiotensin converting enzyme 2 (ACE2), recombinant (human, UniProt Q9BYF1 18-740).
T1 construct: also called soluble ACE2; recombinant ACE2 protein; source: bought: Sino Biological (Catalog number 10108-H08H) for BLI
Description: BLI; biotinylated peptide immobilised on streptavidin tips (loaded at 1.0-2.0 uM); protein in solution (ACE2 at 1000, 500, 250, 125 and 62.5 nM); 30 °C, 1000 rpm; 1 x PBS with 0.1% BSA and 0.02% Tween-20; 180 s association; global 1:1 fit; apparent KD. The conditions noted are these: both partners purified. (In BLI a coated tip is dipped into the sample, and binding shifts an interference pattern.)
Consider B1, for which the Kd amounted to 36 nM.

Regarding B2, the Kd is 35 nM.

Consider B3, for which the Kd came to 26 nM.
